{
  "source": "patent EP3541419B1",
  "biological_target": "human dipeptidyl peptidase 4 (DPP4) expressed by cells (human) (UniProt P27487)",
  "sequence (P27487 whole entry, the tested form may be a part)": "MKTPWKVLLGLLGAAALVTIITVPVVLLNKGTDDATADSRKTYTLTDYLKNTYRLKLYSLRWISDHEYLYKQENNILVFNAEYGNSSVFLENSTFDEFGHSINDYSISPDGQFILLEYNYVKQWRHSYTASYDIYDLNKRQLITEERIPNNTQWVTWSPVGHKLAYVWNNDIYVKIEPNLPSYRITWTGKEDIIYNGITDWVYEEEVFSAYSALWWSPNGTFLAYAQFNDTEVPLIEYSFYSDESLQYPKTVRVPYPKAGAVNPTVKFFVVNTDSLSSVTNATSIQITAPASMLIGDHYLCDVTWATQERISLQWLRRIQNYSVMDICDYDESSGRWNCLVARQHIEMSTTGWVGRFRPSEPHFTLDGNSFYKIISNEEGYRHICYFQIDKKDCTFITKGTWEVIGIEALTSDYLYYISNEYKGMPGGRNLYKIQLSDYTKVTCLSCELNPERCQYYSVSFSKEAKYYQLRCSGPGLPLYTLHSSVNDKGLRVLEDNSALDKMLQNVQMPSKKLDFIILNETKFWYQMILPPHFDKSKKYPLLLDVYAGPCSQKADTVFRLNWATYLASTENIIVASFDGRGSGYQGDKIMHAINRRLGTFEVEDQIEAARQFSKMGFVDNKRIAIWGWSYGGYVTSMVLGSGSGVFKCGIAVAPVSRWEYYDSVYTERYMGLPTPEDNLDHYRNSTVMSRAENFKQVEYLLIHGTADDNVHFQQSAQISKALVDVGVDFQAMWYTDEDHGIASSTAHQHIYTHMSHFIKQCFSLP",
  "assay": "cell-based or functional assay",
  "data": [
    {"substance": "S377-588-Fc (residues 377-588 of MERS-CoV S protein fused to Fc of human IgG) (Fc fusion)", "values": [
      {"measurement": "inhibition of CPE formation caused by MERS-CoV infection in Calu-3 cells", "result": 3, "unit": "µg/mL"}
    ]}
  ]
}
